From the supplement of paper PMC11246515
± gives the standard deviation of the averaged measurements.

Experiment: total protein half-life in vivo (active degradation + dilution); higher = more stable protein
[1] = E. coli NCM3722 delta-clpP delta-lon delta-hslV, growth: N-lim chemostat, doubling time 6 h
[2] = E. coli NCM3722 delta-hslV, growth: N-lim chemostat, doubling time 6 h
[3] = E. coli NCM3722 delta-lon, growth: N-lim chemostat, doubling time 6 h
[4] = E. coli NCM3722 delta-smpB, growth: N-lim chemostat, doubling time 6 h
[5] = wild type E. coli NCM3722, growth: C-lim chemostat, doubling time 3 h
[6] = wild type E. coli NCM3722, growth: C-lim chemostat, doubling time 6 h
[7] = wild type E. coli NCM3722, growth: C-lim chemostat, doubling time 12 h
[8] = wild type E. coli NCM3722, growth: N-lim chemostat, doubling time 6 h
[9] = wild type E. coli NCM3722, growth: N-lim chemostat, doubling time 12 h
[10] = wild type E. coli NCM3722, growth: P-lim chemostat, doubling time 6 h
[11] = wild type E. coli NCM3722, growth: P-lim chemostat, doubling time 12 h

Sequence | total protein half-life in vivo [1] | total protein half-life in vivo (E. coli NCM3722 delta-clpP, growth: N-lim chemostat, doubling time 6 h) | total protein half-life in vivo [2] | total protein half-life in vivo [3] | total protein half-life in vivo [4] | total protein half-life in vivo [5] | total protein half-life in vivo [6] | total protein half-life in vivo [7] | total protein half-life in vivo [8] | total protein half-life in vivo [9] | total protein half-life in vivo [10] | total protein half-life in vivo [11]
MLKREMNIADYDAELWQAMEQEKVRQEEHIELIASENYTSPRVMQAQGSQLTNKYAEGYPGKRYYGGCEYVDIVEQLAIDRAKELFGADYANVQPHSGSQANFAVYTALLEPGDTVLGMNLAHGGHLTHGSPVNFSGKLYNIVPYGIDATGHIDYADLEKQAKEHKPKMIIGGFSAYSGVVDWAKMREIADSIGAYLFVDMAHVAGLVAAGVYPNPVPHAHVVTTTTHKTLAGPRGGLILAKGGSEELYKKLNSAVFPGGQGGPLMHVIAGKAVALKEAMEPEFKTYQQQVAKNAKAMVEVFLERGYKVVSGGTDNHLFLVDLVDKNLTGKEADAALGRANITVNKNSVPNDPKSPFVTSGIRVGTPAITRRGFKEAEAKELAGWMCDVLDSINDEAVIERIKGKVLDICARYPVYA [P0A825] | 4.68 ± 1 h | 3.83 ± 0.091 h | 3.87 ± 0.15 h | 4.35 ± 0.27 h | 3.8 ± 0.26 h | 3.22 ± 0.18 h | 5.51 ± 0.18 h | 10.7 ± 2.1 h | 3.814 ± 0.011 h | 5.98 ± 0.077 h | 5.73 ± 0.5 h | 11.3 ± 0.74 h
MLKRLLKRPSLNLLAWLLLAAFYISICLNIAFFKQVLQALPLDSLHNVLVFLSMPVVAFSVINIVLTLSSFLWLNRPLACLFILVGAAAQYFIMTYGIVIDRSMIANIIDTTPAESYALMTPQMLLTLGFSGVLAALIACWIKIKPATSRLRSVLFRGANILVSVLLILLVAALFYKDYASLFRNNKELVKSLSPSNSIVASWSWYSHQRLANLPLVRIGEDAHRNPLMQNEKRKNLTILIVGETSRAENFSLNGYPRETNPRLAKDNVVYFPNTASCGTATAVSVPCMFSDMPREHYKEELAQHQEGVLDIIQRAGINVLWNDNDGGCKGACDRVPHQNVTALNLPDQCINGECYDEVLFHGLEEYINNLQGDGVIVLHTIGSHGPTYYNRYPPQFRKFTPTCDTNEIQTCTKEQLVNTYDNTLVYVDYIVDKAINLLKEHQDKFTTSLVYLSDHGESLGENGIYLHGLPYAIAPDSQKQVPMLLWLSEDYQKRYQVDQNCLQKQAQTQHYSQDNLFSTLLGLTGVETKYYQAADDILQTCRRVSE | 7.04 ± 1.1 h | – | 6.05 ± 0.36 h | 6.41 ± 0.43 h | 6.19 ± 0.59 h | 3.22 ± 0.046 h | 6.12 ± 0.22 h | 10.7 ± 1.6 h | 6.42 ± 0.21 h | 12.3 ± 0.34 h | 6.03 ± 0.31 h | 13 ± 0.68 h
MLKRVFLSLLVLIGLLLLTVLGLDRWMSWKTAPYIYDELQDLPYRQVGVVLGTAKYYRTGVINQYYRYRIQGAINAYNSGKVNYLLLSGDNALQSYNEPMTMRKDLIAAGVDPSDIVLDYAGFRTLDSIVRTRKVFDTNDFIIITQRFHCERALFIALHMGIQAQCYAVPSPKDMLSVRIREFAARFGALADLYIFKREPRFLGPLVPIPAMHQVPEDAQGYPAVTPEQLLELQKKQGK [P0AFY2] | 5.75 ± 0.44 h | – | 6.88 ± 0.82 h | 5.72 ± 0.66 h | 6.021 ± 0.027 h | 3.1 ± 0.074 h | 5.81 ± 0.24 h | 10.9 ± 0.74 h | 5.85 ± 0.23 h | 11.6 ± 1.1 h | 5.92 ± 0.26 h | 12.3 ± 0.33 h
MLKTIQDKARHRTRPLWAWLKLLWQRIDEDNMTTLAGNLAYVSLLSLVPLVAVVFALFAAFPMFSDVSIQLRHFIFANFLPATGDVIQRYIEQFVANSNKMTAVGACGLIVTALLLMYSIDSALNTIWRSKRARPKIYSFAVYWMILTLGPLLAGASLAISSYLLSLRWASDLNTVIDNVLRIFPLLLSWISFWLLYSIVPTIRVPNRDAIVGAFVAALLFEAGKKGFALYITMFPSYQLIYGVLAVIPILFVWVYWTWCIVLLGAEITVTLGEYRKLKQAAEQEEDDEP [P0A8K8] | – | – | – | – | 4.46 h | > 4 h | – | – | 7.67 h | – | – | > 16 h
MLKTIRKHGITLALFAAGSTGLTAAINQMTKTTIAEQASLQQKALFDQVLPAERYNNALAQSCYLVTAPELGKGEHRVYIAKQDDKPVAAVLEATAPDGYSGAIQLLVGADFNGTVLGTRVTEHHETPGLGDKIELRLSDWITHFAGKKISGADDAHWAVKKDGGDFDQFTGATITPRAVVNAVKRAGLYAQTLPAQLSQLPACGE | 5.83 ± 1.8 h | – | 6.171 ± 0.022 h | 5.52 ± 1.2 h | 6.06 ± 0.48 h | 3.07 ± 0.086 h | 5.7 ± 0.36 h | 10.6 ± 1.6 h | 5.75 ± 0.07 h | 11.9 ± 0.64 h | 5.82 ± 0.13 h | 11.9 ± 0.49 h
MLLAGAIFVLTIVLVIWQPKGLGIGWSATLGAVLALVTGVVHPGDIPVVWNIVWNATAAFIAVIIISLLLDESGFFEWAALHVSRWGNGRGRLLFTWIVLLGAAVAALFANDGAALILTPIVIAMLLALGFSKGTTLAFVMAAGFIADTASLPLIVSNLVNIVSADFFGLGFREYASVMVPVDIAAIVATLVMLHLYFRKDIPQNYDMALLKSPAEAIKDPATFKTGWVVLLLLLVGFFVLEPLGIPVSAIAAVGALILFVVAKRGHAINTGKVLRGAPWQIVIFSLGMYLVVYGLRNAGLTEYLSGVLNVLADNGLWAATLGTGFLTAFLSSIMNNMPTVLVGALSIDGSTASGVIKEAMVYANVIGCDLGPKITPIGSLATLLWLHVLSQKNMTISWGYYFRTGIIMTLPVLFVTLAALALRLSFTL [P0AB93] | – | – | 6.25 h | – | – | – | – | – | 5.83 h | 12.1 h | – | 13.8 ± 1.1 h
MLLSIITVAFRNLEGIVKTHASLAHLAQVEDISFEWIVVDGGSNDGTREYLENLNGIFNLRFVSEPDNGIYDAMNKGIAMAQGKFALFLNSGDIFHQNAANFVRKLKMQKDNVMITGDALLDFGDGHKIKRSAKPGWYIYHSLPASHQAIFFPVSGLKKWRYDLEYKVSSDYALAAKMYKAGYAFKKLNGLVSEFSMGGVSTTNNMELCADAKKVQRQILHVPGFWAELSWHLRQRTTSKTKALYNKV | 4.85 ± 0.28 h | – | – | 1.5 ± 0.23 h | 0.818 ± 0.0095 h | – | – | – | – | – | – | –
